Results reported in patent US20260191905A1 (MODERNATX, published 2026).
Values belong to the molecule of their own block, whether it stands above or below them.

Tests used:
[1] = target: human GPC3 on Jurkat E6.1 cells (human) (UniProt P51654); test: FACS; share of events in the FL1-A+ gate (from 10^5); cells by legend: Jurkat E6.1 with human GPC3, not printed on the panel [23C]
[2] = target: human GPC3 on Jurkat E6.1 cells (human) (UniProt P51654); test: FACS; share of events in the FL1-A+ gate (from 10^5); beside Irrelavant IgG C10 6.49; cells by legend: Jurkat E6.1 with human GPC3, not printed on the panel [23D]
[3] = target: human GPC3 on Jurkat E6.1 cells (human) (UniProt P51654); test: FACS; share of events in the FL1-A+ gate (from 10^5); secondary only 0.21; cells by legend: Jurkat E6.1 with human GPC3, not printed on the panel [23B]
[4] = target: T1, human GPC3 recombinant protein (human, UniProt P51654 25-559); test: SPR (Biacore), VHH-His over human GPC3 on CM5; fit 125 - 7.8 nM; Rmax 16.8 RU; Chi2 0.926
T1 construct: also called huGPC3; Human GPC3 protein
Procedure: (§1) Affinities of the 19 VHH-His tagged domains were then determined by BiaCore assay. Human GPC3 protein (Sino biological cat. nr. 10088-H08H-500) was immobilized on CM5 sensor chip (GE Healthcare) as antigen. Purified VHH-His tagged domains were diluted in BiaCore buffer (0.01 M HEPES pH 7.4, 0.15 M NaCl, 3 mM EDTA, 0.05% P20) to 500 nM and injected over 2 minutes at […] followed by a half dilution series to 7.8 nM. 10 μl of 10 mM NaOH/1M NaCl were injected between samples and then off-rate wash was 5 minutes.

[5] = target: T2, human GPC3 on HepG2 cells (human, UniProt P51654 25-554); test: FACS, periplasmic extract 1:5 + anti-c-myc + GAM-APC on HepG2, well A1; same on A-431: 853.36
T2 construct: whole, on cells

[6] = target: T2, human GPC3 on HepG2 cells; test: FACS, phage-displayed clone on HepG2, well A1; same clone on A-431 (no GPC3): 1028.96
[7] = target: T1, human GPC3 recombinant protein; test: SPR (Biacore) off-rate screen, periplasmic extract over human GPC3 on CM5; R0 13.6; asterisk not explained on the sheet
Procedure: (§2) Human GPC3 protein in acetate buffer, pH 5.0, was immobilized in a sensor chip CM5 (GE Healthcare; Cat. Nr. BR-1005-30; Lot. Nr.10245232) and successful immobilization was confirmed by using a commercially available human GPC3 antibody (R&D cat. nr. MAB2119) and the anti-GPC3-VHH-Fc (both at 10 μg/mL). Periplasmic extracts from the MP were diluted in Biacore Buffer (0.01 M HEPES pH 7.4, 0.15 M NaCl, 3 mM EDTA, 0.05% P20) and injected over 2 minutes at 30 μL/min. 10 μl of 10 mM NaOH/1M NaCl were injected between samples and off-rates were measured over 5 minutes. Off-rate ([…]) were calculated using BIACORE software 1:1 interaction Langmuir binding model.

[8] = target: T2, human GPC3 on HepG2 cells; test: FACS, periplasmic extract 1:5 + anti-c-myc + GAM-APC on HepG2, well A1; same on A-431: 0.10%
[9] = target: T2, human GPC3 on HepG2 cells; test: FACS, phage-displayed clone on HepG2, well A1; same clone on A-431 (no GPC3): 0.95%
[10] = target: T1, human GPC3 recombinant protein; test: SPR (Biacore), summary table; Chi2 0.926; Profile 'L.D.' (less desirable)
Procedure: as §1

[11] = target: T1, human GPC3 recombinant protein; test: SPR (Biacore) off-rate screen, periplasmic extract over human GPC3 on CM5; R0 40.1
Procedure: as §2

[12] = target: T1, human GPC3 recombinant protein; test: SPR (Biacore), summary table; Chi2 0.173; Profile 'L.D.'; asterisk: values not accurately calculated by Biacore software
Procedure: as §1

[13] = target: T1, human GPC3 recombinant protein; test: SPR (Biacore), VHH-His over human GPC3 on CM5; fit 131.7 - 17.34 nM; Rmax 1.72 RU; Chi2 0.173
Procedure: as §1

[14] = target: T1, human GPC3 recombinant protein; test: SPR (Biacore), VHH-His over human GPC3 on CM5; fit 131.7 - 17.34 nM; Rmax 1.72 RU; Chi2 0.173; asterisk: values not accurately calculated by Biacore software
Procedure: as §1

[15] = target: human GPC3 on Jurkat E6.1 cells (human) (UniProt P51654); test: FACS, 1 µg/ml VH + anti-His-FITC; share of events in the FL1-A+ gate (from 10^5); secondary only 0.21 [23F]
[16] = target: T2, human GPC3 on HepG2 cells; test: FACS, periplasmic extract 1:5 + anti-c-myc + GAM-APC on HepG2, well H1; same on A-431: 759.64
[17] = target: T1, human GPC3 recombinant protein; test: SPR (Biacore) off-rate screen, periplasmic extract over human GPC3 on CM5; R0 59.0
Procedure: as §2

[18] = target: T2, human GPC3 on HepG2 cells; test: FACS, phage-displayed clone on HepG2, well H1; same clone on A-431 (no GPC3): 1.36%
[19] = target: T2, human GPC3 on HepG2 cells; test: FACS, periplasmic extract 1:5 + anti-c-myc + GAM-APC on HepG2, well H1; same on A-431: 0.24%
[20] = target: T1, human GPC3 recombinant protein; test: SPR (Biacore), summary table; Chi2 0.281; Profile 'Medium'; FIG. 18 prints 2.97E-09
Procedure: as §1

[21] = target: T2, human GPC3 on HepG2 cells; test: FACS, phage-displayed clone on HepG2, well H1; same clone on A-431 (no GPC3): 1059.31
[22] = target: T1, human GPC3 recombinant protein; test: SPR (Biacore), VHH-His over human GPC3 on CM5; fit 250 - 7.8 nM; Rmax 8.15 RU; Chi2 0.281
Procedure: as §1

[23] = target: T1, human GPC3 recombinant protein; test: SPR (Biacore), VHH-His over human GPC3 on CM5; fit 131.7 - 17.34 nM; Rmax 11.5 RU; Chi2 0.281
Procedure: as §1

[24] = target: T1, human GPC3 recombinant protein; test: SPR (Biacore), summary table; Chi2 0.281; Profile 'Good'
[25] = target: T1, human GPC3 recombinant protein; test: SPR (Biacore) off-rate screen, periplasmic extract over human GPC3 on CM5; R0 61.1
Procedure: as §2

[26] = target: T1, human GPC3 recombinant protein; test: SPR (Biacore), summary table; Chi2 0.0556; Profile 'L.D.'; asterisk: values not accurately calculated by Biacore software
Procedure: as §1

[27] = target: T1, human GPC3 recombinant protein; test: SPR (Biacore), VHH-His over human GPC3 on CM5; fit 131.7 - 17.34 nM; Rmax 1.51 RU; Chi2 0.0556
Procedure: as §1

[28] = target: T1, human GPC3 recombinant protein; test: SPR (Biacore), VHH-His over human GPC3 on CM5; fit 131.7 - 17.34 nM; Rmax 1.51 RU; Chi2 0.0556; asterisk: values not accurately calculated by Biacore software
Procedure: as §1

T2 sequence (P51654 25-554 limits assumed): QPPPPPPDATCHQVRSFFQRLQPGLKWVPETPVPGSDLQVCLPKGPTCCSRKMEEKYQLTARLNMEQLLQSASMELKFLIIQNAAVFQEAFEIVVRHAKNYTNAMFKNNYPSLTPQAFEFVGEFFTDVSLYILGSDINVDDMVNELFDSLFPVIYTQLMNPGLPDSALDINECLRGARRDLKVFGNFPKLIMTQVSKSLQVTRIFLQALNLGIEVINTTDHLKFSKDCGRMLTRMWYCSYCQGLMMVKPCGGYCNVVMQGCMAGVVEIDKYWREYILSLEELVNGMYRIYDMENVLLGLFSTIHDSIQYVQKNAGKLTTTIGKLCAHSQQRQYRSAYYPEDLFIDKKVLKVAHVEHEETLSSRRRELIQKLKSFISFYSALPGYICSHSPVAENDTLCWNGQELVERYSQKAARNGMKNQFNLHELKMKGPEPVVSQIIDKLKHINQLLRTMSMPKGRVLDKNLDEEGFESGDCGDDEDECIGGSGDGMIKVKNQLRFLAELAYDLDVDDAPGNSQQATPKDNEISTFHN
Chain of human GPC3 on Jurkat E6.1 cells (human) (P51654 25-554 limits assumed): as above
T1 sequence (P51654 25-559 limits assumed): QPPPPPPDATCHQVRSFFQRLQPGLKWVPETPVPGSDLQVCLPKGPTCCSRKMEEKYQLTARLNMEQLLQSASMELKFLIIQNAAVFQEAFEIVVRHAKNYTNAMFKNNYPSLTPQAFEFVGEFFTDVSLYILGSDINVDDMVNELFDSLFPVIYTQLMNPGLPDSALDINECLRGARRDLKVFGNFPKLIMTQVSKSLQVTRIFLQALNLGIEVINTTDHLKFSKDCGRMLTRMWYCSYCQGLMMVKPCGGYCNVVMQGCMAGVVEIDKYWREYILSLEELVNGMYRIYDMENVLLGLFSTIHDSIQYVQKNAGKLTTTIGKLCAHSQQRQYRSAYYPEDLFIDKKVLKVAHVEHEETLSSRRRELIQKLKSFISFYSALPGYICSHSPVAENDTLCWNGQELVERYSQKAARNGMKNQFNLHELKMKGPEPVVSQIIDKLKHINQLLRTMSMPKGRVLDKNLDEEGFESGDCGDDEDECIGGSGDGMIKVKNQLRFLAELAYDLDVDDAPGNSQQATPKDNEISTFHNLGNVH

FL1-A+ [1]: 6.49
Molecule: Irrelavant IgG C10 (antibody)

FL1-A+ [2]: 74.9 | FL1-A+ [3]: 47.1
Molecule: HN3-Fc (Fc fusion)

Ka [4]: 1.51e+07 M⁻¹ | Kd [4]: 66.2 nM | koff [4]: 0.0216 s⁻¹ | kon [4]: 327000 M⁻¹ s⁻¹ | Mean FL4-A [5]: 729 | Mean FL2-A [6]: 2720 | koff [7]: 0.00728 s⁻¹ | % of Binding [8]: 0.38% | % of Binding [9]: 18.6% | Kd [10]: 66.2 nM
B1: anti-GPC3 VHH-His tagged domain VHH14 (VHH)
VHH: QVQLVESGGGLVQPGGSLRLSCAASGFNFSNYWMHWVRQAPGKELVWVSRINSDGSSTSYADPVKGRFTISRDNANNMLYLQMNSLRAEDTAMYYCVRVALGFDFWGQGTLVTVSS
notes: Produced from a mammalian expression vector as a His fusion; not shown: His tag

The remaining lines, values behind:

B2: VH23 (VHH)
VHH: EVQLVESGGGLVQPGGSLRLSCAASGFTFSSYAMSWVRQAPGKESEWVSSISGGGSSTYYADSLKGRFTISRDNSKNTLYLQMNSLRAEDTAVYYCSKDPRFGEPPFDYWGQGTLVTVSS
notes: also called VHH23
koff [11]: 0.00347 s⁻¹

B3: anti-GPC3 VHH-His tagged domain VHH18 (VHH)
VHH: QVQLVESGGGLVQPGGSLRLSCAASGFTFSSYAMSWVRQAPGKEPEWVSSISGGGSSTYYADSLKGRFTISRDNSKNTLYLQMNSLRAEDTAVYYCSRDPRLGEPPFDYWGQGTTVTVSS
notes: as for B1
Kd [12]: ~4.88 nM | koff [13]: 0.00249 s⁻¹ | kon [13]: 511000 M⁻¹ s⁻¹ | Ka [14]: ~2.05e+08 M⁻¹ | Kd [14]: ~4.88 nM

B4: anti-GPC3 VHH-His tagged domain VHH11 (VHH)
VHH: EVQLVESGGGLVQPGGSLRLSCAASGFTFSSYAMSWVRQAPGKEPEWVSSISGGGSSTYYADSLKGRFTISRDNSKNTLYLQMNSLRAEDTAVYYCSRDPRFREPPFDYWGQGTLVTVSS
notes: as for B1
FL1-A+ [15]: 0.78 | Mean FL4-A [16]: 842 | koff [17]: 0.00325 s⁻¹ | % of Binding [18]: 66.2% | % of Binding [19]: 0.57% | Kd [20]: 2.19 nM | Mean FL2-A [21]: 22600 | Ka [22]: 3.37e+08 M⁻¹ | Kd [22]: 2.97 nM | koff [22]: 0.00261 s⁻¹ | kon [22]: 880000 M⁻¹ s⁻¹

B5: anti-GPC3 VHH-His tagged domain VHH4 (VHH)
VHH: QVQLVESGGGLVQPGGSLRLSCAASGFTFSSYAMSWVRQAPGKESEWVSSISGSGSSTYYADSLKGRFTISRDNSKNTLYLQMNSLRAEDTAVYYCSKDPRFGEPPFDYWGQGTTVTVSS
notes: Produced from a mammalian expression vector as a His fusion; also called VH4; not shown: His tag
Ka [23]: 1.97e+08 M⁻¹ | Kd [23]: 5.07 nM | koff [23]: 0.00237 s⁻¹ | kon [23]: 466000 M⁻¹ s⁻¹ | Kd [24]: 5.07 nM | koff [25]: 0.00236 s⁻¹

B6: anti-GPC3 VHH-His tagged domain VHH17 (VHH)
VHH: EVQLVESGGGLVQPGGSLRLSCAASGFTFSSYAMSWVRQAPGKGLEWVSAIYSGGSTYYADSVKGRFTISRDNSKNTLYLQMNSLRAEDTAVYYCARGDSSSSRFDYWGQGTLVTVSS
notes: as for B1
Kd [26]: ~5.36 nM | koff [27]: 0.00119 s⁻¹ | kon [27]: 222000 M⁻¹ s⁻¹ | Ka [28]: ~1.86e+08 M⁻¹ | Kd [28]: ~5.36 nM
